The experiment concerns the target pY213 peptide (14-residue Abi1 peptide containing phosphorylated tyrosine 213) (human). Kind of experiment: SPR (Biacore 3000), biotinylated pY213 on streptavidin chip, GST-Abl SH2 injected, 1:1 model. Background: In SPR one partner is held on a chip, and binding of the other changes the refractive index at the surface.

pKd: −log10 of the molar value.

This note sets out measurements from patent US20100184652A1.

The term pKd denotes −log10 of the Kd, conventionally taken in molar units. A low value points to a high Kd. On to “GST-Abl SH2 domain fusion protein (from UniProt P00519 146-236)”, for which the pKd is 7.48.
